Targets include HLA-A*33:01; HLA-A*31:01; HLA-A*03:01; HLA-A*68:01; HLA-A*11:01.
Test in all cases: IEDB peptide-MHC binding, purified MHC/competitive/radioactivity; filed as Kd, often an IC50 or EC50 that approximates it; ≥ and ≤ were set here for values at or beyond the usual limits of such assays
Setting [1] is: source organism: Vaccinia virus WR.
Setting [2] is: source organism: SARS coronavirus Tor2.
Where [3] appears, read: source organism: Vaccinia virus Copenhagen.
[4] abbreviates: source organism: Dengue virus 1 Brazil/97-11/1997.
Where [5] appears, read: source organism: Dengue virus 2 Jamaica/1409/1983.
Where [6] appears, read: source organism: Dengue virus 3 Martinique/1243/1999.
Setting [7] is: source organism: Dengue virus 1 Singapore/S275/1990.
The mark [8] stands for this setting: source organism: Dengue virus 4 Philippines/H241/1956.

In the case of FMVSVSDFR, the equilibrium dissociation constant (Kd) (commonly the equilibrium constant for the complex coming apart) was 219 nM with HLA-A*33:01 (setting [1]); 67.2 nM with HLA-A*31:01 (setting [1]); 3050 nM with HLA-A*03:01 (setting [1]); 0.398 nM with HLA-A*68:01 (setting [1]); 493 nM with HLA-A*11:01 (setting [1]).

As to GAAVTLNRIK, the Kd was not below 70000 nM in the assay with HLA-A*33:01 (setting [1]); not below 40600 nM with HLA-A*31:01 (setting [1]); 1750 nM with HLA-A*03:01 (setting [1]); 8350 nM with HLA-A*68:01 (setting [1]); 1040 nM with HLA-A*11:01 (setting [1]).

Take GFPFNKWGK: the Kd was 17700 nM with HLA-A*33:01 (setting [2]); 721 nM in the assay with HLA-A*31:01 (setting [2]); not below 20800 nM with HLA-A*03:01 (setting [2]); 17400 nM with HLA-A*68:01 (setting [2]); 655 nM in the assay with HLA-A*11:01 (setting [2]).

Regarding GFTATICLK, the equilibrium dissociation constant (Kd) in the assay with HLA-A*33:01 (setting [3]) was 467 nM; with HLA-A*31:01 (setting [3]), 1730 nM; with HLA-A*03:01 (setting [3]), 1890 nM; with HLA-A*68:01 (setting [3]) it was 81.5 nM; in the assay with HLA-A*11:01 (setting [3]), 40.3 nM.

In the case of GIFTTNIWLK, the dissociation constant Kd with HLA-A*03:01 (setting [4]) turned out to be 14.3 nM; in the assay with HLA-A*11:01 (setting [4]) it was 12.5 nM.

Take GINNVQSLIK: the dissociation constant Kd is not below 70000 nM in the assay with HLA-A*33:01 (setting [1]); 16100 nM with HLA-A*31:01 (setting [1]); 170 nM with HLA-A*03:01 (setting [1]); 10300 nM in the assay with HLA-A*68:01 (setting [1]); 17.2 nM in the assay with HLA-A*11:01 (setting [1]).

As for GMNDYLGIFK, the Kd was 5970 nM with HLA-A*33:01 (setting [1]); 390 nM with HLA-A*31:01 (setting [1]); 2.86 nM with HLA-A*03:01 (setting [1]); 572 nM with HLA-A*68:01 (setting [1]); 4.28 nM with HLA-A*11:01 (setting [1]).

Regarding GQGQNSADPK, the dissociation constant Kd was not below 70000 nM with HLA-A*33:01 (setting [2]) and not below 70200 nM with HLA-A*68:01 (setting [2]).

Turning to GSCVTTMAK, the Kd with HLA-A*11:01 (setting [5]) is 115 nM.

GVIDTMRIY: the Kd with HLA-A*33:01 (setting [1]) amounted to 11400 nM; with HLA-A*31:01 (setting [1]), 991 nM; with HLA-A*03:01 (setting [1]), 1680 nM; in the assay with HLA-A*68:01 (setting [1]) it was 3020 nM; with HLA-A*11:01 (setting [1]), 85.7 nM.

GVTFQGKFKK: the dissociation constant (Kd) with HLA-A*33:01 (setting [2]) was not below 24100 nM; in the assay with HLA-A*31:01 (setting [2]), 2840 nM; with HLA-A*03:01 (setting [2]), 761 nM; with HLA-A*68:01 (setting [2]) it was 1860 nM; with HLA-A*11:01 (setting [2]), 536 nM.

On to HLTKTDKKY, for which the Kd was not below 41900 nM in the assay with HLA-A*33:01 (setting [1]); 9480 nM with HLA-A*31:01 (setting [1]); not below 22900 nM with HLA-A*03:01 (setting [1]); 7290 nM with HLA-A*68:01 (setting [1]); 1970 nM with HLA-A*11:01 (setting [1]).

Turning to HTWQKQTQR, the values for the equilibrium dissociation constant (Kd) in the assay with HLA-A*33:01 (setting [6]) and with HLA-A*31:01 (setting [6]) were 57.8 nM and 2.88 nM, respectively.

As to IALGLMALK, in the assay with HLA-A*11:01 (setting [6]), the Kd came to 42.7 nM.

Regarding IIDAKNDDWK, the Kd in the assay with HLA-A*33:01 (setting [1]) is not below 70000 nM; in the assay with HLA-A*31:01 (setting [1]), not below 70000 nM; in the assay with HLA-A*03:01 (setting [1]) it was 6380 nM; with HLA-A*68:01 (setting [1]) it was 2270 nM; in the assay with HLA-A*11:01 (setting [1]) it was 15900 nM.

For the sequence IILANERYR, the Kd with HLA-A*33:01 (setting [1]) was 2770 nM; in the assay with HLA-A*31:01 (setting [1]), 106 nM; in the assay with HLA-A*03:01 (setting [1]), 9590 nM; with HLA-A*68:01 (setting [1]) it was 92.8 nM; with HLA-A*11:01 (setting [1]) it was 6670 nM.

As to ILARRPTPK, the Kd in the assay with HLA-A*33:01 (setting [3]) is not below 67100 nM; with HLA-A*31:01 (setting [3]) it was 1560 nM; with HLA-A*03:01 (setting [3]) it was 1.31 nM; with HLA-A*68:01 (setting [3]) it was 1780 nM; with HLA-A*11:01 (setting [3]) it was 46 nM.

For ILARRPTPKK, the equilibrium dissociation constant (Kd) with HLA-A*33:01 (setting [3]) is not below 70000 nM; with HLA-A*31:01 (setting [3]) it was 18100 nM; with HLA-A*03:01 (setting [3]), 1.7 nM; with HLA-A*68:01 (setting [3]), 2390 nM; in the assay with HLA-A*11:01 (setting [3]), 4 nM.

In the case of ISNMLNIMNR, the figures for the equilibrium dissociation constant (Kd) with HLA-A*33:01 (setting [7]) and with HLA-A*31:01 (setting [7]) were 157 nM and not below 38100 nM, respectively.

In the case of ITWIGMNSR, the dissociation constant Kd in the assay with HLA-A*33:01 (setting [5]) came out at 35.4 nM; in the assay with HLA-A*31:01 (setting [5]), 11.2 nM.

In the case of KSAAIDGEYR, the Kd with HLA-A*31:01 (setting [4]) came out at 4.04 nM; with HLA-A*68:01 (setting [4]), 134 nM.

Take LLLRKLTSK: in the assay with HLA-A*03:01 (setting [5]), the Kd stood at 28.8 nM.

LVEYGTVVNK: the Kd with HLA-A*68:01 (setting [1]) amounted to 212 nM.

Turning to LVTPSMTMR, the Kd with HLA-A*31:01 (setting [6]) is 343 nM.

Take MALFQPANK: in the assay with HLA-A*11:01 (source organism: Mammarenavirus juninense), the Kd was determined as 48 nM.

With MIRPQPMEHK, in the assay with HLA-A*03:01 (setting [4]), the Kd came to 8.89 nM.

Turning to MTATPPGSR, the equilibrium dissociation constant (Kd) in the assay with HLA-A*68:01 (setting [5]) came out at 18.4 nM.

With MTIIGRRLQR, the Kd is 32.7 nM with HLA-A*33:01 (setting [8]), 15.1 nM with HLA-A*31:01 (setting [8]) and 10.5 nM with HLA-A*68:01 (setting [8]).

On to RMLINRFTMK, for which the Kd with HLA-A*03:01 (setting [5]) was 6.19 nM; with HLA-A*11:01 (setting [5]) it was 334 nM.

As for SIMKNTTNTR, the Kd with HLA-A*31:01 (setting [5]) was 672 nM; with HLA-A*68:01 (setting [5]) it was 139 nM.

In the case of SQLAKRFSK, in the assay with HLA-A*11:01 (setting [4]), the Kd amounted to 49.9 nM.

As to STQSVLCVKK, the Kd with HLA-A*31:01 (setting [1]) amounted to 180 nM; with HLA-A*03:01 (setting [1]) it was 118 nM; in the assay with HLA-A*68:01 (setting [1]), 3.52 nM; with HLA-A*11:01 (setting [1]), 0.157 nM.

Turning to SYVMCTGSFK, the equilibrium dissociation constant (Kd) in the assay with HLA-A*33:01 (setting [4]) came to 17.7 nM; in the assay with HLA-A*03:01 (setting [4]), 111 nM.

With TAGPWHLGK, in the assay with HLA-A*11:01 (setting [5]), the Kd is 66.1 nM.

Consider TAKEVALLR, for which the equilibrium dissociation constant (Kd) with HLA-A*33:01 (setting [8]) was determined as 17.3 nM; with HLA-A*68:01 (setting [8]), 75.1 nM.

In the case of TIFAGHLKCR, the equilibrium dissociation constant (Kd) in the assay with HLA-A*68:01 (setting [4]) came out at 16.9 nM.

As to TTILTPMLR, the results for the dissociation constant (Kd) in the assay with HLA-A*33:01 (setting [8]), with HLA-A*68:01 (setting [8]) and with HLA-A*11:01 (setting [8]) were 36.4 nM, 10.9 nM and 387 nM, respectively.

Take TVGPWHLGK: the dissociation constant (Kd) is 17 nM with HLA-A*03:01 (setting [8]) and 24.5 nM in the assay with HLA-A*11:01 (setting [8]).

For the sequence VVGAGGVGK, the values for the Kd with HLA-A*03:01 (source organism: Homo sapiens) and in the assay with HLA-A*11:01 (source organism: Homo sapiens) were 125 nM and 90.6 nM, respectively.

On to WSYYCGGLK, for which the dissociation constant (Kd) in the assay with HLA-A*03:01 (setting [5]) turned out to be 1.28 nM.

For the origin of these results see the Immune Epitope Database (IEDB).
